Measured values from patent publication US20120316071A1 (published 2012).
Residue numbers refer to the chain shown, from its start. Numbers in names are those of the source.

T1: rHuman Erythropoietin R/Fc Chimera, CF (R&D Systems Cat#963-ER) (human, UniProt P19235 25-250)
T1 construct: Bought recombinant Fc chimera; also called EPO R; EPO R/Fc; not shown: Fc of the bought R&D Systems chimera
T1 sequence (looked up): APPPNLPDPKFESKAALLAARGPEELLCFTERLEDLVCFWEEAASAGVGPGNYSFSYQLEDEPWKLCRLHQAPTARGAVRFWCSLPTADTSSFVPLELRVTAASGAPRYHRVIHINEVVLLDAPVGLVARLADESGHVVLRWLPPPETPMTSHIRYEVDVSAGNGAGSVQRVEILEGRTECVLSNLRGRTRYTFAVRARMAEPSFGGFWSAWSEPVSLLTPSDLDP

B1: Fab VH1-46_IGHD6-6*01_IGHJ1*01 S102A & L6_IGKJ1*01 (Fab, V domains shown)
VH: QVQLVQSGAEVKKPGASVKVSCKASGYTFTSYYMHWVRQAPGQGLEWMGIINPSGGSTSYAQKFQGRVTMTRDTSTSTVYMELSSLRSEDTAVYYCAREEYASSSAEYFQHWGQGTLVTVSS
VL: not shown
notes: Fab
B2: Fab VH1-46_IGHD6-6*01_IGHJ1*01 S103P & L6_IGKJ1*01 (Fab, V domains shown)
VH: B1 VH with A102S, S103P
VL: not shown
notes: Fab
B3: Fab VH1-46_IGHD6-6*01_IGHJ1*01 S104F & L6_IGKJ1*01 (Fab, V domains shown)
VH: B1 VH with A102S, S104F
VL: not shown
notes: Fab
B4: Fab VH1-46_IGHD6-6*01_IGHJ1*01 S103A & L6_IGKJ1*01 (Fab, V domains shown)
VH: B1 VH with A102S, S103A
VL: not shown
notes: Fab made in E. coli; The heavy chain variable region was cloned into Plasmid A (CH1, His6 and Flag tags) and the kappa light chain variable region into Plasmid C (kappa CL)
B5: Fab VH1-46_IGHD6-6*01_IGHJ1*01 S103P & L6_IGKJ1*01 (Fab, V domains shown)
VH: B1 VH with A102S, S103P
VL: not shown
notes: as for B4
B6: Fab VH1-46_IGHD6-6*01_IGHJ1*01 S104H & L6_IGKJ1*01 (Fab, V domains shown)
VH: B1 VH with A102S, S104H
VL: not shown
notes: as for B4
B7: Fab VH5-51_IGHD5-18*01>3_IGHJ4*01 G100K/G104T G24T/S28R/G35V (H:KT TRV) & V3-4_IGLJ1*01 V91L/S96P (L:LP) (Fab, V domains shown)
VH: EVQLVQSGAEVKKPGESLKISCKTSGYRFTSYWIVWVRQMPGKGLEWMGIIYPGDSDTRYSPSFQGQVTISADKSISTAYLQWSSLKASDTAMYYCARRKYSYTYDYFDYWGQGTLVTVSS
VL: QTVVTQEPSFSVSPGGTVTLTCGLSSGSVSTSYYPSWYQQTPGQAPRTLIYSTNTRSSGVPDRFSGSILGNKAALTITGAQADDESDYYCLLYMGPGISYVFGTGTKVTVL
notes: Tested as a Fab made in E. coli; also called H:KT TRV & L:LP
B8: Fab VH5-51_IGHD5-18*01>3_IGHJ4*01 G100K/G104T G24T/S28R/G35V (H:KT TRV) & V3-4_IGLJ1*01 (Fab, V domains shown)
VH: B7 VH
VL: B7 VL with L91V, P96S
notes: Tested as a Fab made in E. coli; also called H:KT TRV & L:wt; Wildtype (light chain)
B9: Fab VH5-51_IGHD5-18*01>3_IGHJ4*01 G100K/G104T G24T/S28R/G35V (H:KT TRV) & V3-4_IGLJ1*01 V91L/S96P S52G (Fab, V domains shown)
VH: B7 VH
VL: B7 VL with S52G
notes: Tested as a Fab made in E. coli; also called H:KT TRV & L:LP S52G
B10: Fab VH5-51_IGHD5-18*01>3_IGHJ4*01 G100K/G104T G24T/S28R/G35V (H:KT TRV) & V3-4_IGLJ1*01 V91L/S96P S52M (Fab, V domains shown)
VH: B7 VH
VL: B7 VL with S52M
notes: Tested as a Fab made in E. coli; also called H:KT TRV & L:LP S52M

target: T2, Recombinant Human DLL4 (R&D Systems Cat#1506-D4/CF) (human, UniProt Q9NR61 27-524); test: 96-well plate ECL, DLL4 coated
T2 construct: bought recombinant protein; also called rHuman DLL4; delta-like protein 4

Binder	fold signal/noise ratio against the parent Fab [fold]
B1	~3
B2	~3
B3	≥ 4

target: T3, rHuman CD44/Fc Chimera, CF (R&D Systems Cat#3660-CD) (human, UniProt P16070 21-220); test: ECL Multispot (MSD), antigen spotted on plate, Fab 0.1 uM;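 also: ratio compares each antigen's electrochemiluminescence to the blank within the same well, with a ratio of at least 4 counted as a binding Fab hit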
T3 construct: Bought recombinant Fc chimera; not shown: Fc of the bought R&D Systems chimera

Binder	ECL signal/noise ratio
B4	1.4
B5	2.1
B6	1.1

target: T4, rHuman IGF-1 sR, CF (R&D Systems Cat#391-GR) (human, UniProt P08069 31-932); test: as above
T4 construct: Bought recombinant soluble receptor; also called insulin-like growth factor-1 soluble receptor

Binder	ECL signal/noise ratio
B4	1.2
B5	2
B6	1

target: T5, rHuman P-Cadherin/Fc Chimera, CF (R&D Systems Cat#861-PC) (human, UniProt P22223 108-654); test: as above
T5 construct: Bought recombinant Fc chimera; not shown: Fc of the bought R&D Systems chimera

Binder	ECL signal/noise ratio
B4	1.4
B5	1.4
B6	0.8

target: T1, rHuman Erythropoietin R/Fc Chimera, CF …; test: as above

Binder	ECL signal/noise ratio
B4	1.4
B5	2.4
B6	1

target: T6, Recombinant Human DLL4 (R&D Systems Cat#1506-D4/CF) (human, UniProt Q9NR61 27-524); test: as above
T6 construct: Bought recombinant protein; also called delta-like protein 4; rHuman DLL4

Binder	ECL signal/noise ratio
B4	31.6
B5	139
B6	88.3

target: T7, rHuman ErbB2/Fc Chimera, CF (R&D Systems Cat#1129-ER) (human, UniProt P04626 23-652); test: as above
T7 construct: Bought recombinant Fc chimera; not shown: Fc of the bought R&D Systems chimera

Binder	ECL signal/noise ratio
B4	1
B5	2.2
B6	1

target: T8, rHuman EGF R/Fc Chimera, CF (R&D Systems Cat#344-ER) (human, UniProt P00533 25-645); test: as above
T8 construct: Bought recombinant Fc chimera; not shown: Fc of the bought R&D Systems chimera

Binder	ECL signal/noise ratio
B4	1.2
B5	2.3
B6	0.6

target: T9, rHuman HGF R/c-MET/Fc Chimera, CF (R&D Systems Cat#358-MT/CF) (human, UniProt P08581 25-932); test: as above
T9 construct: Bought recombinant Fc chimera; also called HGF R/Fc; not shown: Fc of the bought R&D Systems chimera
T9 sequence (P08581 25-932, change not shown): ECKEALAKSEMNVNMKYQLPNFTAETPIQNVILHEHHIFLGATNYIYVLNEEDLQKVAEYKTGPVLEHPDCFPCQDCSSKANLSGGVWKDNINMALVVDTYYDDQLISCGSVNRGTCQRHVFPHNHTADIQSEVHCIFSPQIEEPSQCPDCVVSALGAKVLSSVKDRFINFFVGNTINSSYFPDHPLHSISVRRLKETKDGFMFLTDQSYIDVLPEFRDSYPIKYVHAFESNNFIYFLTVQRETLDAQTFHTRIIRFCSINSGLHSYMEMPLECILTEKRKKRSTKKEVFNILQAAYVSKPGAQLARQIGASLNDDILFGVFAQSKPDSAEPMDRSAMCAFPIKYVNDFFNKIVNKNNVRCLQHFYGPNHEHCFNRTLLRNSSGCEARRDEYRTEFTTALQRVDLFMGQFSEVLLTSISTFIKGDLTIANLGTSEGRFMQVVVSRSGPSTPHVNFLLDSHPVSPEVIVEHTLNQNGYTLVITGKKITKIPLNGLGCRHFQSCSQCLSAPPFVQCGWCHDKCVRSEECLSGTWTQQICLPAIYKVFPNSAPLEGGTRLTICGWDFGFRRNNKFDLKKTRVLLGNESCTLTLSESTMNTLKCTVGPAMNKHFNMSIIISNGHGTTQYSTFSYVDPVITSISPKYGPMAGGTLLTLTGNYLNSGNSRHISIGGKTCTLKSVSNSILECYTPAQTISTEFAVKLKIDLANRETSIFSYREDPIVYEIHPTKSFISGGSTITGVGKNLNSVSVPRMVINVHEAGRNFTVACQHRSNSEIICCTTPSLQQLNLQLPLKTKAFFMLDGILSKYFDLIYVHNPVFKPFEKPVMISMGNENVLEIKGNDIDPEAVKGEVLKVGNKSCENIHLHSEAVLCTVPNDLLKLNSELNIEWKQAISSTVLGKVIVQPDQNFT

Binder	ECL signal/noise ratio
B4	1
B5	1.9
B6	0.8

target: T10, rHuman Notch-1/Fc Chimera, CF (R&D Systems Cat#3647-TK) (human, UniProt P46531 19-526); test: as above
T10 construct: Bought recombinant Fc chimera; not shown: Fc of the bought R&D Systems chimera

Binder	ECL signal/noise ratio
B4	1.2
B5	2.6
B6	0.8

target: T3, rHuman CD44/Fc Chimera, CF (R&D Systems …); test: ECL Multispot (MSD), antigen spotted on plate, Fab 0.01 uM;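 also: electrochemiluminescence of each antigen spot divided by the blank of the same well, with a value of 4 or above scoring the Fab as a binding hit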

Binder	ECL signal/noise ratio
B4	1.3
B5	1.5
B6	1.4

target: T4, rHuman IGF-1 sR, CF (R&D Systems …); test: as above

Binder	ECL signal/noise ratio
B4	1.1
B5	1
B6	1.5

target: T5, rHuman P-Cadherin/Fc Chimera, CF (R&D …); test: as above

Binder	ECL signal/noise ratio
B4	1.3
B5	1.1
B6	1

target: T1, rHuman Erythropoietin R/Fc Chimera, CF …; test: as above

Binder	ECL signal/noise ratio
B4	1.1
B5	1.8
B6	1.2

target: T6, Recombinant Human DLL4 (R&D Systems …); test: as above

Binder	ECL signal/noise ratio
B4	4.5
B5	22.9
B6	27

target: T7, rHuman ErbB2/Fc Chimera, CF (R&D …); test: as above

Binder	ECL signal/noise ratio
B4	0.9
B5	2
B6	1

target: T8, rHuman EGF R/Fc Chimera, CF (R&D …); test: as above

Binder	ECL signal/noise ratio
B4	1.3
B5	1.8
B6	1

target: T9, rHuman HGF R/c-MET/Fc Chimera, CF (R&D …); test: as above

Binder	ECL signal/noise ratio
B4	1.2
B5	1.2
B6	1

target: T10, rHuman Notch-1/Fc Chimera, CF (R&D …); test: as above

Binder	ECL signal/noise ratio
B4	1.4
B5	1.8
B6	1.4

target: T11, Recombinant Human DLL4 (delta-like protein 4) (human, UniProt Q9NR61 27-524); test: ELISA, DLL4 coated on plate; Fab at 100 (head prints µM, text says nM)
T11 construct: Bought recombinant protein (R&D Systems Cat#1506-D4/CF); also called rHuman DLL4; Delta-like 4

Binder	ELISA signal
B7	0.34
B8	0.16
B9	0.69
B10	0.24

target: T11, Recombinant Human DLL4 (delta-like …); test: ELISA, DLL4 coated on plate; Fab at 0.05 (head prints µM, text says nM)

Binder	ELISA signal
B7	0.02
B8	0.01
B9	0.02
B10	0.02

target: T11, Recombinant Human DLL4 (delta-like …); test: ELISA, DLL4 coated on plate; Fab at 0.14 (head prints µM, text says nM)

Binder	ELISA signal
B7	0.03
B8	0
B9	0.02
B10	0.02

target: T11, Recombinant Human DLL4 (delta-like …); test: ELISA, DLL4 coated on plate; Fab at 0.41 (head prints µM, text says nM)

Binder	ELISA signal
B7	0.02
B8	0.01
B9	0.01
B10	0.03

target: T11, Recombinant Human DLL4 (delta-like …); test: ELISA, DLL4 coated on plate; Fab at 1.23 (head prints µM, text says nM)

Binder	ELISA signal
B7	0.03
B8	0.01
B9	0.03
B10	0.03

target: T11, Recombinant Human DLL4 (delta-like …); test: ELISA, DLL4 coated on plate; Fab at 3.70 (head prints µM, text says nM)

Binder	ELISA signal
B7	0.03
B8	0.03
B9	0.06
B10	0.03

target: T11, Recombinant Human DLL4 (delta-like …); test: ELISA, DLL4 coated on plate; Fab at 11.11 (head prints µM, text says nM)

Binder	ELISA signal
B7	0.07
B8	0.04
B9	0.17
B10	0.06

target: T11, Recombinant Human DLL4 (delta-like …); test: ELISA, DLL4 coated on plate; Fab at 33.33 (head prints µM, text says nM)

Binder	ELISA signal
B7	0.19
B8	0.08
B9	0.35
B10	0.12
